# Entries after “also recorded” stand apart in the source; their conditions may differ.
# How the values were obtained:
# [1] = system: newborn rat ventricular myocytes; test: Whole-cell voltage clamp of expressed HCN current in newborn rat ventricular myocytes; format: cell-based; settings: for V1/2 / s: fit of average data; for current density: measured at −135 mV
# Method: Adult rats were anesthetized with ketamine-xylazine before cardiectomy, and neonatal rats decapitated. Newborn rat ventricular myocyte cultures were prepared as previously described (Protas and Robinson, 1999). Briefly, 1-2-day-old Wistar rats were euthanized, hearts were quickly removed and ventricles were dissociated using a standard trypsinization procedure. Myocytes were harvested, preplated to reduce fibroblast proliferation, cultured initially in serum-containing medium (except when being transfected with plasmids as described below), and then incubated in serum free medium (SFM) at 37° C., 5% CO2 after 24 h. Action potential studies were conducted on 4-day-old monolayer cultures plated directly onto fibronectin-coated 9×22 mm glass coverslips. For voltage clamp experiments, 4-6 day old monolayer cultures were resuspended by brief (2-3 min) exposure to 0.25% trypsin, then replated onto fibronectin-coated coverslips and studied within 2-8 h.
# Adenoviral infection of the newborn ventricular myocytes was performed on cell monolayer cultures 4 days after initial plating. Cells were exposed to a virus-containing mix (m.o.i. 20, in 250 μl of culture medium) for 2 h, rinsed twice and incubated in SFM at 37° C., 5% CO2 for 24-48 hours prior to the cells being resuspended as described above for electrophysiological study.
# The whole-cell patch clamp technique was employed to record mHCN2 current from cultured myocytes. Experiments were carried out on cells superfused at 35° C. The external solution contained (mM): NaCl, 140; NaOH, 2.3; MgCl2, 1; KCl, 10; CaCl2, 1; HEPES, 5; glucose, 10; pH 7.4. MnCl2 (2 mM) and BaCl2 (4 mM) were added to block other currents. The pipette solution contained (mM): aspartic acid, 130; KOH, 146; NaCl, 10; CaCl2, 2; EGTA-KOH, 5; Mg-ATP, 2; HEPES-KOH, 10; pH 7.2.
# To measure the HCN activation curve, a standard two-step protocol was employed. Hyperpolarizing steps from −25 to −135 mV for mHCN2 and from −5 or −15 to −135 mV for mE324A were applied from a holding potential of −10 mV, followed by a tail current step (to −125 or −135 mV). The duration of test steps was longer at less hyperpolarized potential for mHCN2 channels, to more closely approach steady-state activation at all voltages. The normalized plot of tail current versus test voltage was fit with a Boltzmann function and then the voltage of half maximum activation (V1/2) and slope factor(s) were defined from the fitting. Activation kinetics were determined from the same traces, while deactivation kinetics were determined from traces recorded at each test potential after achieving full activation by a prepulse to −135 mV. Time constants were then obtained by fitting the early time course of activation or deactivation current traces with a monoexponential function; the initial delay and any late slow activation or deactivation phase were ignored (Qu et al., 2001; Altomare et al., 2001). Current densities are expressed as the value of the time-dependent component of current amplitude, measured at the end of the test potential and normalized to cell membrane capacitance. Records were not corrected for liquid junction potential, which was previously determined to be 9.8 mV under these conditions (Qu et al., 2001).
# Xenopus oocytes = test: Two-microelectrode voltage clamp of expressed HCN current in Xenopus oocytes; format: cell-based, Xenopus laevis
# [2] = system: dogs with complete AV block; test: Tandem biological and electronic pacemakers in dogs with complete AV block (injection into left bundle branch); format: in vivo, dog
# Method: Adult mongrel dogs weighing 22-25 kg were anesthetized with propofol 6 mg/kg IV and inhalational isoflurane (1.5%-2.5%). Using a steerable catheter, saline (n=5), AdmHCN2 (n=6) or AdmE324A (n=4) were injected into the left bundle branch (LBB) as described previously (Plotnikov et al., 2004). In 2 additional dogs AdmE324A was injected into the LV septal myocardium as an internal control. Complete AV block was induced via radiofrequency ablation and each site of injection was paced via catheter electrode to distinguish electrocardiographically the origin of the idioventricular rhythm during the follow up period.
# An electronic pacemaker (Discovery II, Flextend lead; Guidant, Indianapolis, Ind.) was implanted and set at VVI 45 bpm. ECG, 24 hour Holter monitoring, pacemaker log record check, and overdrive pacing at 80 bpm were performed daily for 14 days. To evaluate beta-adrenergic responsiveness, on day 14, epinephrine (1.0, 1.5 and 2.0 μg/kg/min for up to 10 min each) was infused to an endpoint of a 50% increase in idioventricular rate or ventricular arrhythmia (single ventricular premature beats having a morphology other than that of the dominant idioventricular rhythm or ventricular tachycardia), whichever occurred first. If none of the above responses was observed within 10 min after onset of the maximal dose of 2 μg/kg/min, the infusion was terminated.
# Data are presented as means±SEM. […] One-way ANOVA was used to evaluate the effect of an implanted construct on electrophysiological parameters. Subsequent analysis was performed using Bonferroni's test where equal variances were assumed and the Games-Howell test where variances were unequal. A two-way contingency table analysis was conducted to evaluate whether epinephrine had different effects across three groups. Data were analyzed using SPSS for Windows software (SPSS, Inc.). P<0.05 was considered to be significant.
# Complete AV block was induced via radiofrequency ablation, and electronic pacemakers were implanted into the right ventricular apical endocardium and set a VV1 45 bpm. ECG and 24-h monitoring were performed daily for 14 days. Beta-adrenergic responsiveness was also evaluated as described above.
# Escape time was evaluated daily by performing three 30-s periods of ventricular overdrive pacing at 80 bpm followed by an abrupt cessation of pacing. The average time between the final electronically paced beat and the first intrinsic beat was then determined. […] There was a different result with regard to basal heart rates throughout the 14-day period, however.
# [3] = system: canine proximal LV conducting system; settings: sinus rhythm suppressed by vagal stimulation; cited from earlier work
# [4] = system: cell-free patches from Xenopus oocytes; settings: cited from earlier work
# [5] = 10 μM cAMP in the pipette solution
molecule,measurement,setting,value
"mHCN2: mouse HCN2 pacemaker ion channel (GenBank AJ225122), expressed from plasmid, cRNA or adenoviral construct AdmHCN2 (protein, UniProt O88703 1-863, looked up) Potassium/sodium …: MDARGGGGRPGDSPGTTPAPGPPPPPPPPAPPQPQPPPAPPPNPTTPSHPESADEPGPRARLCSRDSACTPGAAKGGANGECGRGEPQCSPEGPARGPKVSFSCRGAASGPSAAEEAGSEEAGPAGEPRGSQASFLQRQFGALLQPGVNKFSLRMFGSQKAVEREQERVKSAGAWIIHPYSDFRFYWDFTMLLFMVGNLIIIPVGITFFKDETTAPWIVFNVVSDTFFLMDLVLNFRTGIVIEDNTEIILDPEKIKKKYLRTWFVVDFVSSIPVDYIFLIVEKGIDSEVYKTARALRIVRFTKILSLLRLLRLSRLIRYIHQWEEIFHMTYDLASAVMRICNLISMMLLLCHWDGCLQFLVPMLQDFPSDCWVSINNMVNHSWSELYSFALFKAMSHMLCIGYGRQAPESMTDIWLTMLSMIVGATCYAMFIGHATALIQSLDSSRRQYQEKYKQVEQYMSFHKLPADFRQKIHDYYEHRYQGKMFDEDSILGELNGPLREEIVNFNCRKLVASMPLFANADPNFVTAMLTKLKFEVFQPGDYIIREGTIGKKMYFIQHGVVSVLTKGNKEMKLSDGSYFGEICLLTRGRRTASVRADTYCRLYSLSVDNFNEVLEEYPMMRRAFETVAIDRLDRIGKKNSILLHKVQHDLSSGVFNNQENAIIQEIVKYDREMVQQAELGQRVGLFPPPPPPQVTSAIATLQQAVAMSFCPQVARPLVGPLALGSPRLVRRAPPGPLPPAASPGPPAASPPAAPSSPRAPRTSPYGVPGSPATRVGPALPARRLSRASRPLSASQPSLPHGVPAPSPAASARPASSSTPRLGPAPTARTAAPSPDRRDSASPGAASGLDPLDSARSRLSSNL",shift of V1/2 by cAMP,[1]; [5],9.7 mV
same,percentage of myocytes expressing current,[1]; 6 matched cell cultures,74.5%
same,midpoint of activation,[1]; HCN2 virus characterized in neonatal rat myocytes,−69.3 mV
same,activation τ,[1]; at −65 mV,639 ± 72 ms
same,V1/2,[1]; [5],−59.9 mV
same,s,[1]; [5],11.0 mV
same,V1/2,[1]; absence of cAMP,−69.6 mV
same,s,[1]; absence of cAMP,10.8 mV
same,slope factor s,[1]; mean of individual Boltzmann fits,10.7±0.5 mV
same,V1/2 (voltage of half maximum activation),"[1]; mean of individual Boltzmann fits, adenoviral infection",−66.1±1.5 mV
same,current density,[1],53.5±8.7 pA/pF
same,current density,[1]; listed as HCN2,53.5±8.3 pA/pF
same,activation more negative than mE324A,Xenopus oocytes,35 mV
same,effect of Cs+ on inward current,Xenopus oocytes; 5 mM Cs+,blocked; also recorded: large inhibition
same,share of animals with 50% or more increase that required the highest dose of epinephrine,[2]; 2 μg/kg/min,33%
same,"beats triggered by the electronic pacemaker, of all beats","[2]; 14 days, electronic pacemaker set at VVI 45 bpm",26±6%
same,arrhythmias during epinephrine infusion,[2]; day 14,two animals developed ventricular arrhythmias
same,mean basal heart rate compared with saline group,[2]; days 1-7 and 8-14,significantly faster
same,animals with less than a 50% increase in rate,"[2]; epinephrine 1.0, 1.5, 2.0 μg/kg/min, day 14",50%
same,control rate prior to epinephrine,"[2]; representative animal, day 14",44 bpm
same,rate with epinephrine,"[2]; representative animal, epinephrine 1 μg/kg/min",60 bpm
same,rate of idioventricular rhythms,[3],50-60 bpm
same,shift of activation curve to more positive potentials by cAMP,[4],17 mV

# Reference: patent publication US20090053180A1, “Tandem cardiac pacemaker system” (priority 2005, published 2009)
